From patent US20250277020A1 (Boehringer Ingelheim, published 2025)
Changes are numbered by the printed parent chain.

T1: Full-length human CTGF (human, UniProt P29279 27-349)
T1 construct: Corresponds to NCBI NP_001892.1 with the signal peptide omitted; purchased from R&D Systems; also called hCTGF full length; full length CTGF
T1 sequence: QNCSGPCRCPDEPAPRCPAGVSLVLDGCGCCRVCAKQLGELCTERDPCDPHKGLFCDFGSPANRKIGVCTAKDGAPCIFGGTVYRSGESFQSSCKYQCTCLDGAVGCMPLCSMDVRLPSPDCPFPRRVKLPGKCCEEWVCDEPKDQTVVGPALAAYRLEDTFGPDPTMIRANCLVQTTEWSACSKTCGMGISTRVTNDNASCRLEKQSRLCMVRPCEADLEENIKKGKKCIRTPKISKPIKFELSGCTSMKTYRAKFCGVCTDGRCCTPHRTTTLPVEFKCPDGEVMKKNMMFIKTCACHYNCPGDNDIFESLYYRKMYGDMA

B1: A85 (antibody, human IgG1, kappa, L234A L235A)
light: VVMTQTPLSLPVSLGDQASISCRSSQSIVHYNEKTYLEWYLQKPGQSPQLLIYKVSNRFSGVPDRFSGSGSGTDFTLKISRVEAEDLGVYYCFQGSHFPLTFGQGTKLEIKRTVAAPSVFIFPPSDEQLKSGTASVVCLLNNFYPREAKVQWKVDNALQSGNSQESVTEQDSKDSTYSLSSTLTLSKADYEKHKVYACEVTHQGLSSPVTKSFNRGEC
heavy: not shown
B2: A87 (antibody, human IgG1, kappa, L234A L235A, V domains shown)
VH: EVQLVESGGGLVQPGGSLRLSCAASGFTFSDYYMAWVRQAPGKGLEWVANINYDGSRTDLLESLKSRFTISRDNAKNSVYLQMNSLRAEDTAVYYCARDTSRGSYFDVWGAGTTVTVSS
VL: VVMTQTPLSLPVSLGDQASISCRSSQSIVHYNEKTYLEWYLQKPGQSPQLLIYKVSNRFSGVPDRFSGSGSGTDFTLKISRVEAEDLGVYYCFQGSHFPLTFGQGTKLEIKR
B3: A88 (antibody, human IgG1, kappa, L234A L235A)
light: B1 light
heavy: not shown
B4: A89 (antibody, human IgG1, kappa, L234A L235A, V domains shown)
VH: B2 VH with D54E
VL: B2 VL with P11S, R23K, E33G, K34N, N57S
B5: A90 (antibody, human IgG1, kappa, L234A L235A, V domains shown)
VH: B2 VH with D54Y
VL: B2 VL with P11S, R23K, E33G, K34N, N57S
B6: A91 (antibody, human IgG1, kappa, L234A L235A, V domains shown)
VH: B2 VH with D54E, E62A
VL: B2 VL with P11S, R23K, E33G, K34N, N57S
B7: A92 (antibody, human IgG1, kappa, L234A L235A, V domains shown)
VH: B2 VH with D54Y, E62A
VL: B2 VL with P11S, R23K, E33G, K34N, N57S
B8: A93 (antibody, human IgG1, kappa, L234A L235A)
light: B1 light with P11S, R23K, E33G, K34N, N57S
heavy: not shown
B9: A94 (antibody, human IgG1, kappa, L234A L235A, V domains shown)
VH: B2 VH with D54E, E62D
VL: B2 VL with P11S, R23K, E33G, K34N, N57S
B10: A95 (antibody, human IgG1, kappa, L234A L235A, V domains shown)
VH: B2 VH
VL: B2 VL with P11S, R23K, E33G, K34N, N57S
B11: A96 (antibody, human IgG1, kappa, L234A L235A)
light: B1 light with P11S, R23K, E33G, K34N, N57S
heavy: not shown
B12: A98 (antibody, human IgG1, kappa, L234A L235A)
light: B1 light with P11S, R23K, E33G, K34N, N57S, F59A
heavy: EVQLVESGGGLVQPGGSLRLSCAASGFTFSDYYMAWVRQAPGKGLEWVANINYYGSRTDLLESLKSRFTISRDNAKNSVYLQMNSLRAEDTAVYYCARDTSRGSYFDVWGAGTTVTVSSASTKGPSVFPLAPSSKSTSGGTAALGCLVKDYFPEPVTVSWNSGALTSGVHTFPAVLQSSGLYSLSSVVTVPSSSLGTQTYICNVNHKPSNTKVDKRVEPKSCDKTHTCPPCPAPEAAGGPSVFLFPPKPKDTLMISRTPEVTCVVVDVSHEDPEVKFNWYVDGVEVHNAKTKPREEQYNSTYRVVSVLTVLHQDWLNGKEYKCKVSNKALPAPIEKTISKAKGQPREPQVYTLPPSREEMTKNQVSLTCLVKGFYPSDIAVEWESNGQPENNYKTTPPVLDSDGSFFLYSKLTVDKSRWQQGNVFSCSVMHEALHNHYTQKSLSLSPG
B13: A99 (antibody, human IgG1, kappa, L234A L235A)
light: B1 light with P11S, R23K, E33G, K34N, N57S, F59A
heavy: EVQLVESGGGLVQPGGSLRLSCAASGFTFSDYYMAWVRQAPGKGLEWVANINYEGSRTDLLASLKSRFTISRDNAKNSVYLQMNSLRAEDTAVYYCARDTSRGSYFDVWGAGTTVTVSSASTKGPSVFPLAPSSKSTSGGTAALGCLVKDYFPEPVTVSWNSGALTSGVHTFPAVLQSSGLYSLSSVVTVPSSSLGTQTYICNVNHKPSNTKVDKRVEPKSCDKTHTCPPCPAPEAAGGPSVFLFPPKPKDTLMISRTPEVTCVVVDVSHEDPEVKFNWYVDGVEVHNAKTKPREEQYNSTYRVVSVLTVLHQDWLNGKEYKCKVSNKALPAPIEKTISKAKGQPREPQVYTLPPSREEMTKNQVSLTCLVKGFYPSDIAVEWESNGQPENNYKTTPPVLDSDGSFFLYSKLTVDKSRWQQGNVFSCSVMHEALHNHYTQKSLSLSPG
B14: A100 (antibody, human IgG1, kappa, L234A L235A)
light: B1 light with P11S, R23K, E33G, K34N, N57S, F59A
heavy: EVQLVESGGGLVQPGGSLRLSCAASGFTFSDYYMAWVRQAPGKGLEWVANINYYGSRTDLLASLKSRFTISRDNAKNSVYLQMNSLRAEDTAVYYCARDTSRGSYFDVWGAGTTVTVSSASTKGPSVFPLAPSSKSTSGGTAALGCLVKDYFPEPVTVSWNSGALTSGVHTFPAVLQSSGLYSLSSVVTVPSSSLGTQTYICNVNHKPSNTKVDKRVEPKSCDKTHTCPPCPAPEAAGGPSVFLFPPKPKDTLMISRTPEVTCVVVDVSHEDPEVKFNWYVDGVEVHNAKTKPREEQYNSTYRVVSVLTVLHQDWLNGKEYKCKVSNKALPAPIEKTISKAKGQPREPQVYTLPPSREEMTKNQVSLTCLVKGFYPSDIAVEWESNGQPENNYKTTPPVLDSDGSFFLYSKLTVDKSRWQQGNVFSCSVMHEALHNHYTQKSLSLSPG
B15: A101 (antibody, human IgG1, kappa, L234A L235A)
light: B1 light with P11S, R23K, E33G, K34N, N57S, F59A
heavy: not shown
B16: A102 (antibody, human IgG1, kappa, L234A L235A)
light: B1 light with P11S, R23K, E33G, K34N, N57S, F59A
heavy: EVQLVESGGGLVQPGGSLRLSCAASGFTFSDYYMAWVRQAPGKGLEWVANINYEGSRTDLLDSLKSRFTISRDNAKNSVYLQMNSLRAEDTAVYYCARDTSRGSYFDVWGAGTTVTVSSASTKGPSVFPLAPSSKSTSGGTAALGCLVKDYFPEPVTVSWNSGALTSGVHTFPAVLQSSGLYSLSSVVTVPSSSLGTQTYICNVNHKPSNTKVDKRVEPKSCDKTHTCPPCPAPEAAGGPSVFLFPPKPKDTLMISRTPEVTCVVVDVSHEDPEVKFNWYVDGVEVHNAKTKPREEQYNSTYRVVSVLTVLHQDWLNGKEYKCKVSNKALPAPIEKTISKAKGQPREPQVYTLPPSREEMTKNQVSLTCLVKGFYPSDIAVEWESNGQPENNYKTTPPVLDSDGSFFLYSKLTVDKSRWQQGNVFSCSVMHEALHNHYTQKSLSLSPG
B17: A103 (antibody, human IgG1, kappa, L234A L235A)
light: B1 light with P11S, R23K, E33G, K34N, N57S, F59A
heavy: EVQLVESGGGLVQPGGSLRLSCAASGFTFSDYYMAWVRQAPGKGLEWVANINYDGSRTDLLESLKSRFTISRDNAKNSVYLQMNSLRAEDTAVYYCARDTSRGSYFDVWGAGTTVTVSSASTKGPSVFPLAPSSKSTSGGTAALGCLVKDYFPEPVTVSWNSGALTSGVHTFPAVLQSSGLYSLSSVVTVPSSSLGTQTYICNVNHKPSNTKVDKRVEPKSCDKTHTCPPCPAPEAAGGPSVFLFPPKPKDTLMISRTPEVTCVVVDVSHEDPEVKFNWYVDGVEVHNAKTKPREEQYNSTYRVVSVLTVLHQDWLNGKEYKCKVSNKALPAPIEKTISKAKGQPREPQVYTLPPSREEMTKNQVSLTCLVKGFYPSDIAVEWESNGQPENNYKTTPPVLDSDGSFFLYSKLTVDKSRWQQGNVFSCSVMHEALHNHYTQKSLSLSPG
B18: A104 (antibody, human IgG1, kappa, L234A L235A)
light: B1 light with P11S, R23K, E33G, K34N, N57S, F59A
heavy: not shown
B19: A121 (antibody, human IgG1, kappa, L234A L235A, V domains shown)
VH: B2 VH with D54E
VL: B2 VL with E33G, K34N, F59D
B20: A122 (antibody, human IgG1, kappa, L234A L235A, V domains shown)
VH: B2 VH with D54Y
VL: B2 VL with E33G, K34N, F59D
B21: A123 (antibody, human IgG1, kappa, L234A L235A, V domains shown)
VH: B2 VH with D54E, E62A
VL: B2 VL with E33G, K34N, F59D
B22: A124 (antibody, human IgG1, kappa, L234A L235A, V domains shown)
VH: B2 VH with D54Y, E62A
VL: B2 VL with E33G, K34N, F59D
B23: A125 (antibody, human IgG1, kappa, L234A L235A)
light: B1 light with E33G, K34N, F59D
heavy: not shown
B24: A126 (antibody, human IgG1, kappa, L234A L235A, V domains shown)
VH: B2 VH with D54E, E62D
VL: B2 VL with E33G, K34N, F59D
B25: A127 (antibody, human IgG1, kappa, L234A L235A, V domains shown)
VH: B2 VH
VL: B2 VL with E33G, K34N, F59D
B26: A128 (antibody, human IgG1, kappa, L234A L235A)
light: B1 light with E33G, K34N, F59D
heavy: not shown
notes: humanized from the 15 pM mouse clone; also called humanized antibody A128
B27: A105 (antibody, human IgG1, kappa, L234A L235A)
light: DIVMTQTPLSLSVSLGDQASISCKSSQSIVHYNGNTYLEWYLQKPGQSPQLLIYKVSSRASGVPDRFSGSGSGTDFTLKISRVEAEDLGVYYCFQGSHFPLTFGQGTKLEIKRTVAAPSVFIFPPSDEQLKSGTASVVCLLNNFYPREAKVQWKVDNALQSGNSQESVTEQDSKDSTYSLSSTLTLSKADYEKHKVYACEVTHQGLSSPVTKSFNRGEC
heavy: not shown
B28: A106 (antibody, human IgG1, kappa, L234A L235A)
light: B27 light
heavy: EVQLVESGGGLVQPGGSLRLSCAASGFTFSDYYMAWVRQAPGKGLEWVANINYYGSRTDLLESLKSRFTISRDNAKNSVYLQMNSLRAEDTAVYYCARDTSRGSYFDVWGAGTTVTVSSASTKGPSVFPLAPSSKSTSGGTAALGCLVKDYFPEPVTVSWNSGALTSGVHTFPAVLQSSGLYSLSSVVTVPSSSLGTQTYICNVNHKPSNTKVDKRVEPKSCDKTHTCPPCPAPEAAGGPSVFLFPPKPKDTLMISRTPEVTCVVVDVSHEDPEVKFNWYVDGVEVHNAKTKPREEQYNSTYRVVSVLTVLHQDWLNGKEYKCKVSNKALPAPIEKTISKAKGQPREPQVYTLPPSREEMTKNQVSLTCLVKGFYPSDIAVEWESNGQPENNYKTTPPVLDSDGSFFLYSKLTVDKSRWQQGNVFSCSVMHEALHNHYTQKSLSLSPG
B29: A107 (antibody, human IgG1, kappa, L234A L235A)
light: B27 light
heavy: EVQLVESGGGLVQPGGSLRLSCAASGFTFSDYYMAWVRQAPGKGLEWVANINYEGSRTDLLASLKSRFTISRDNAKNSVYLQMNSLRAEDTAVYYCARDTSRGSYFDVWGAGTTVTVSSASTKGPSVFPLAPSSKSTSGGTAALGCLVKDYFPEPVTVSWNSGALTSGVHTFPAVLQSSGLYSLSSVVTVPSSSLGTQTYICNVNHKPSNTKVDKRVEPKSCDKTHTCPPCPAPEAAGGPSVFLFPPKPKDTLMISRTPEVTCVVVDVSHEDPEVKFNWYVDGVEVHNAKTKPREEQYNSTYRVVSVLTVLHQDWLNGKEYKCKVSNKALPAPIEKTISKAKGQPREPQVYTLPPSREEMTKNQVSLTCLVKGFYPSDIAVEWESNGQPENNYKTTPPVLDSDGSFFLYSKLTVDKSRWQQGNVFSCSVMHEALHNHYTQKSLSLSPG
B30: A108 (antibody, human IgG1, kappa, L234A L235A)
light: B27 light
heavy: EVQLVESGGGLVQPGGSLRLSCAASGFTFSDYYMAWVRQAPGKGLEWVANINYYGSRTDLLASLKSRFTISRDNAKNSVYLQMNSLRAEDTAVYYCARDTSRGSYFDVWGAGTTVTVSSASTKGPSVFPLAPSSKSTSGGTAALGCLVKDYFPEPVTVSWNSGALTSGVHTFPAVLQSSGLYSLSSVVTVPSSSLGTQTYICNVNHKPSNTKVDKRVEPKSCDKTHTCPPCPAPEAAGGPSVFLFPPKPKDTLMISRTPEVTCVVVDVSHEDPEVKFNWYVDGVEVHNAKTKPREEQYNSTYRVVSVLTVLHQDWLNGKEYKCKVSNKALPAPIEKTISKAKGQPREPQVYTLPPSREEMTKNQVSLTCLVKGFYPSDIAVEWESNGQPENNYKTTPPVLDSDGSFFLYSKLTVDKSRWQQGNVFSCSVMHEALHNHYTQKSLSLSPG
B31: A109 (antibody, human IgG1, kappa, L234A L235A)
light: B27 light
heavy: not shown
B32: A110 (antibody, human IgG1, kappa, L234A L235A)
light: B27 light
heavy: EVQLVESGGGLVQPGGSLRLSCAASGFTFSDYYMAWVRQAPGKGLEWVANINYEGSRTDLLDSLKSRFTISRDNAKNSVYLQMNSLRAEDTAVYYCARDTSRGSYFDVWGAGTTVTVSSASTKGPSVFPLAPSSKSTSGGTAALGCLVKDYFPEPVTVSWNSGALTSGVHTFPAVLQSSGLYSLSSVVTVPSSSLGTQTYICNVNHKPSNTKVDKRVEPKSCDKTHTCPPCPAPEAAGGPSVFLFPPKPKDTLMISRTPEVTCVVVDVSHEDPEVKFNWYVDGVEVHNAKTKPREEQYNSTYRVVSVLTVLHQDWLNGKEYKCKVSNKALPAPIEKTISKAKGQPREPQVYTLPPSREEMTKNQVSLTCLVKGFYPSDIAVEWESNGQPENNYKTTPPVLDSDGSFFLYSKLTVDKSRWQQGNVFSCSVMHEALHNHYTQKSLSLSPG
B33: A111 (antibody, human IgG1, kappa, L234A L235A)
light: B27 light
heavy: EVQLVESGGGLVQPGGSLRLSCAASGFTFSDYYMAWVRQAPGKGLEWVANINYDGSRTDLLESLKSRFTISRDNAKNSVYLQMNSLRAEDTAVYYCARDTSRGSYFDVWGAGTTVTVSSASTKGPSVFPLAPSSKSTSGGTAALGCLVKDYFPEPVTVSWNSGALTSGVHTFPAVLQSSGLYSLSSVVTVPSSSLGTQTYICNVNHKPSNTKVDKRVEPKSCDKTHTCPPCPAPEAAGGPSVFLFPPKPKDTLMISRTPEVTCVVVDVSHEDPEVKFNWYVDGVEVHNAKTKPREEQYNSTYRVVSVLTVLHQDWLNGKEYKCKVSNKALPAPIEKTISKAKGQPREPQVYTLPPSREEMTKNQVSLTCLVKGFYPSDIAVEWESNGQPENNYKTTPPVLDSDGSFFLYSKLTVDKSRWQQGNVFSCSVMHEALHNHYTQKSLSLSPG
B34: A112 (antibody, human IgG1, kappa, L234A L235A)
light: B27 light
heavy: not shown
B35: A113 (antibody, human IgG1, kappa, L234A L235A)
light: B27 light with G34E, N35K
heavy: not shown
B36: A114 (antibody, human IgG1, kappa, L234A L235A)
light: B27 light with G34E, N35K
heavy: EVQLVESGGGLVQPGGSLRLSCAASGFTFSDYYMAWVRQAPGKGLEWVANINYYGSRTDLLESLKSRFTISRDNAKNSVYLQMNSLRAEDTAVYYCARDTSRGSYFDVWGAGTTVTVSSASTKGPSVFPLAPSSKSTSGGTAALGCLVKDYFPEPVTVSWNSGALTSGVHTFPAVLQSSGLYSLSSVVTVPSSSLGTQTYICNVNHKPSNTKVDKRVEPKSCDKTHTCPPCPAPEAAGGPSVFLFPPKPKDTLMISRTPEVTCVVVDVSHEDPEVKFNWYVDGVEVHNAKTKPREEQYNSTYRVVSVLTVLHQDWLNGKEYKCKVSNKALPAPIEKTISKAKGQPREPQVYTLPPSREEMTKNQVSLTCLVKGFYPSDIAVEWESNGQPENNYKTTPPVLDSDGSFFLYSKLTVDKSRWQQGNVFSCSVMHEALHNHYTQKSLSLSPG

molecular target: T1, Full-length human CTGF; experiment: SPR, full length CTGF

**Q.** B1 was tested. Which Kd did it give?
**A.** 0.28 nM

**Q.** For B2, which Kd is on record?
**A.** 0.34 nM

**Q.** B3 was tested. Which Kd did it give?
**A.** 0.32 nM

**Q.** For B4, which Kd is on record?
**A.** 0.16 nM

**Q.** With B5 as the binder, how does the Kd read?
**A.** 0.17 nM

**Q.** For B6, which Kd is on record?
**A.** 0.13 nM

**Q.** How did the Kd turn out when B7 was run?
**A.** 0.16 nM

**Q.** Which Kd does the source give for B8 here?
**A.** 0.18 nM

**Q.** B9 was tested. Which Kd did it give?
**A.** 0.19 nM

**Q.** How did the Kd turn out when B10 was run?
**A.** 0.19 nM

**Q.** For B11, which Kd is on record?
**A.** 0.19 nM

**Q.** For B12, which Kd is on record?
**A.** 0.12 nM

**Q.** B13 was tested. Which Kd did it give?
**A.** 0.11 nM

**Q.** For B14, which Kd is on record?
**A.** 0.13 nM

**Q.** For B15, which Kd is on record?
**A.** 0.17 nM

**Q.** How did the Kd turn out when B16 was run?
**A.** 0.15 nM

**Q.** How did the Kd turn out when B17 was run?
**A.** 0.15 nM

**Q.** Which Kd does the source give for B18 here?
**A.** 0.17 nM

**Q.** How did the Kd turn out when B19 was run?
**A.** 0.24 nM

**Q.** B20 was tested. Which Kd did it give?
**A.** 0.23 nM

**Q.** Which Kd does the source give for B21 here?
**A.** 0.21 nM

**Q.** How did the Kd turn out when B22 was run?
**A.** 0.25 nM

**Q.** With B23 as the binder, how does the Kd read?
**A.** 0.26 nM

**Q.** With B24 as the binder, how does the Kd read?
**A.** 0.27 nM

**Q.** How did the Kd turn out when B25 was run?
**A.** 0.28 nM

**Q.** With B26 as the binder, how does the Kd read?
**A.** 0.27 nM

**Q.** For B27, which Kd is on record?
**A.** 0.42 nM

**Q.** With B28 as the binder, how does the Kd read?
**A.** 0.43 nM

**Q.** How did the Kd turn out when B29 was run?
**A.** 0.37 nM

**Q.** With B30 as the binder, how does the Kd read?
**A.** 0.42 nM

**Q.** For B31, which Kd is on record?
**A.** 0.44 nM

**Q.** B32 was tested. Which Kd did it give?
**A.** 0.45 nM

**Q.** B33 was tested. Which Kd did it give?
**A.** 0.51 nM

**Q.** Which Kd does the source give for B34 here?
**A.** 0.48 nM

**Q.** With B35 as the binder, how does the Kd read?
**A.** 0.76 nM

**Q.** B36 was tested. Which Kd did it give?
**A.** 0.75 nM
